Series [1] concerns the target HCMV protease (Human cytomegalovirus) (UniProt P16753). As to conditions: cited from earlier work.
Series [2] deals with the molecule itself.

On to HCMV protease (from UniProt P16753), for which the Kd in series [1] is 5.8 µM.

B1: HCMV protease (protein)
chain: MTMDEQQSQAVAPVYVGGFLARYDQSPDEAELLLPRDVVEHWLHAQGQGQPSLSVALPLNINHDDTAVVGHVAAMQSVRDGLFCLGCVTSPRFLEIVRRASEKSELVSRGPVSPLQPDKVVEFLSGSYAGLSLSSRRCDDVEAATSLSGSETTPFKHVALCSVGRRRGTLAVYGRDPEWVTQRFPDLTAADRDGLRAQWQRCGSTAVDASGDPFRSDSYGLLGNSVDALYIRERLPKLRYDKQLVGVTERESYVKA
With B1, in series [2], the Kd was around 70 µM.

For orientation: Kd means the free concentration of one partner at which half of the binding sites on the other are occupied at equilibrium, for simple one-to-one binding.

These data come from article PMC13486704 (2026).
